# From patent US20250134947A1, “TRI-, TETRA AND PENTAPEPTIDES, COMPOSITIONS THEREOF AND THEIR USE IN THE THERAPY OF PSORIASIS” (ENUMITA AS, priority 2021, published 2025)
# Target: T1, transformation of SerpinB3 to Pso p27 with chymase (Homo sapiens, UniProt P29508)
# T1 construct: made in house; host or cells: Escherichia coli BL21 (DE3) RIPL (Stratagene)
# T1 sequence (P29508 1-390): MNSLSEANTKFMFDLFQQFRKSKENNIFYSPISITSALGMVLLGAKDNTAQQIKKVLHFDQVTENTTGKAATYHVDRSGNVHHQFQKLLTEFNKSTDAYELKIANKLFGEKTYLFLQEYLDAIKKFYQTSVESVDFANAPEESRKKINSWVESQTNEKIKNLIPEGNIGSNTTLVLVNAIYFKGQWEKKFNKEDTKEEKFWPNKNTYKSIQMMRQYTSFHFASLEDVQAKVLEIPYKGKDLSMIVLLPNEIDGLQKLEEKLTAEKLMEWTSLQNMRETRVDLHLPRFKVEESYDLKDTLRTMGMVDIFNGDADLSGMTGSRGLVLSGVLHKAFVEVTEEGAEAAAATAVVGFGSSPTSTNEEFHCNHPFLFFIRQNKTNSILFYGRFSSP
# Test: Test of peptides: inhibition of chymase transformation of SerpinB3 to Pso p27, SDS-gel-electrophoresis
# Assay type: biochemical
# Details: SerpinB3 2 μg in 35 μl PBS, peptide 5 μl (10 mg/ml) 1 hour at 37C°, then 1 μl chymase over night at 37C°
# Description: In this Example, peptides were tested in order to find out whether they are able to prevent and/or inhibit the formation of Pso p27. The peptides were purchased from Biomatik Corporation, 4 Third Ave, Kitchener, Ontario, N2C 1N6, Canada, and analyzed with respect to prevention and/or inhibiting potential. The following methods were used:
# Expression vector pMCSG7 Serpin B3 (Clone ID: HsCD00343153) was used. Recombinant SerpinB3 was expressed in Escherichia coli BL21 (DE3) RIPL (Stratagene) and purified as described by Lysvand H, Helland R, Hagen L, Slupphaug G, Iversen OJ., “Psoriasis pathogenesis-Pso p27 is generated from SCCA 1 with chymase”, Biochim. Biophys. Acta 1842 (2014) 734-738.
# SerpinB3 solved in phosphate-buffered saline (PBS) (2 μg in 35 μl PBS) was incubated with a tripeptide or tetrapeptide 5 μl (10 mg/ml) for 1 hour at 37C°. 1 μl chymase was added and the mixture was incubated over night at 37C°. The solution was analyzed by SDS-gel-electrophoresis.
# SDS-gel-electrophoresis was performed as described by Iversen O J, Lysvand H, Hagen L., “The autoantigen Pso p27: a post-translational modification of SCCA molecules”, Autoimmunity 44 (2011) 229-234.
row,Substance,"prevention and/or inhibition of the cleavage reaction of the serpin molecules SerpinB3/B4, and/or prevention and/or inhibition of the formation of Pso p27"
1,Asp-Asp-Lys-Pro (DDKP) [tetrapeptide],effective
2,Asp-Asp-Pro [DDP],effective
3,Asp-Asp-Pro-Lys (DDPK) [tetrapeptide],effective
4,Asp-Glu-Leu-Pro (DELP) [tetrapeptide],effective
5,Asp-Glu-Pro [DEP],effective
6,Asp-Glu-Pro-Asn (DEPN) [tetrapeptide],effective
7,Asp-Glu-Pro-Leu (DEPL) [tetrapeptide],effective
8,Asp-Leu-Glu-Pro (DLEP) [tetrapeptide],effective
9,Asp-Lys-Pro-Asp (DKPD) [tetrapeptide],effective
10,Asp-Pro-Asn-Glu (DPNE) [tetrapeptide],effective
11,Asp-Pro-Glu [DPE],effective
12,Asp-Pro-Glu-Asn (DPEN) [tetrapeptide],effective
13,Asp-Pro-Glu-Leu (DPEL) [tetrapeptide],effective
14,Asp-Pro-Leu-Glu (DPLE) [tetrapeptide],effective
15,Glu-Asn-Asp-Pro (ENDP) [tetrapeptide],effective
16,Glu-Asp-Asn-Pro (EDNP) [tetrapeptide],effective
17,Glu-Asp-Leu-Pro (EDLP) [tetrapeptide],effective
18,Glu-Pro-Asp [EPD],effective
